Data on one substance can be found in PMC2137869.

“And” between values parts separate entries of the source, which are not always exact repeats. Equal entries are not always repeated.

Experiment [1] has as its target H chains of rabbit gamma2 globulin, first Sephadex G-100 peak (Fraction H) (rabbit). Nature of the experiment: sucrose density gradient ultracentrifugation.
Experiment [2] concerns the target H chains of non-specific rabbit gamma2 globulin (rabbit). Nature of the experiment: sucrose density gradient ultracentrifugation.

With “L chains of non-specific rabbit gamma2 globulin”, the per cent of the I131 label (L chains) in the >7S fraction in experiment [1] stood at 9 per cent. In addition, the per cent of the H chains in the 7S peak in experiment [2] is 60 per cent and 70 per cent.
